Test results from US20240400696A1.

B1: AC3418 (bispecific antibody, V domains shown)
VH: EVQLLESGGGIVQPGGSLKLSCAASGFTFNTYAMNWVRQAPGKGLEWVARIRSKYNNYATYEADSVKDRFTISRDDSKNTVYLQMNNLKTEDTAVYYCVRHENFGNSYVSWFAHWGQGTLVTVSS
VL: ELVVTQEPSLTVSPGGTVTLTCRSSNGAVTSSNYANWVQQKPGQAPRGLIGGTNKRAPGTPARFSGSLLGGKAALTLSGVQPEDEAVYYCALWYPNLWVFGGGTKLTVL
B2: AC3423 (bispecific antibody, V domains shown)
VH: EVQLLESGGGIVQPGGSLKLSCAASGFTFNTYAMNWVRQAPGKGLEWVARIRSKYNNYATYYPDSVKDRFTISRDDSKNTVYLQMNNLKTEDTAVYYCVRHENFGNSYVSWFAHWGQGTLVTVSS
VL: ELVVTQEPSLTVSPGGTVTLTCRSSNGAVTSSNYANWVQQKPGQAPRGLIGGTNKRAPGTPARFSGSLLGGKAALTLSGVQPEDEAVYYCALWYPNLWVFGGGTKLTVL
B3: AC3424 (bispecific antibody, V domains shown)
VH: EVQLLESGGGIVQPGGSLKLSCAASGFTFNTYAMNWVRQAPGKGLEWVARIRSKYNNYATYYADSVKGRFTISRDDSKNTVYLQMNNLKTEDTAVYYCVRHENFGNSYVSWFAHWGQGTLVTVSS
VL: ELVVTQEPSLTVSPGGTVTLTCRSSNGAVTSSNYANWVQQKPGQAPRGLIGGTNKRAPGTPARFSGSLLGGKAALTLSGVQPEDEAVYYCALWYPNLWVFGGGTKLTVL
B4: AC3433 (bispecific antibody, V domains shown)
VH: EVQLLESGGGIVQPGGSLKLSCAASGFTFNTYAMNWVRQAPGKGLEWVARIRSKYNNYATYYADSVKDRFTISRDDSKNTVYLQMNNLKTEDTAVYYCVRHENFGNSYVSWFAHWGQGTLVTVSS
VL: ELVVTQEPSLTVSPGGTVTLTCRSSNGAVTSSNYANWVQQKPGQAPRGLIGGTNKRAPGTPARFSGSLQGGKAALTLSGVQPEDEAVYYCALWYPNLWVFGGGTKLTVL
B5: AC3422 (bispecific antibody, V domains shown)
VH: EVQLLESGGGIVQPGGSLKLSCAASGFTFNTYAMNWVRQAPGKGLEWVARIRSKYNNYATYYKDSVKDRFTISRDDSKNTVYLQMNNLKTEDTAVYYCVRHENFGNSYVSWFAHWGQGTLVTVSS
VL: ELVVTQEPSLTVSPGGTVTLTCRSSNGAVTSSNYANWVQQKPGQAPRGLIGGTNKRAPGTPARFSGSLLGGKAALTLSGVQPEDEAVYYCALWYPNLWVFGGGTKLTVL
B6: AC3431 (bispecific antibody, V domains shown)
VH: EVQLLESGGGIVQPGGSLKLSCAASGFTFNTYAMNWVRQAPGKGLEWVARIRSKYNNYATYYADSVKDRFTISRDDSKNTVYLQMNYLKTEDTAVYYCVRHENFGNSYVSWFAHWGQGTLVTVSS
VL: ELVVTQEPSLTVSPGGTVTLTCRSSNGAVTSSNYANWVQQKPGQAPRGLIGGTNKRAPGTPARFSGSLLGGKAALTLSGVQPEDEAVYYCALWYPNLWVFGGGTKLTVL
B7: AC3420 (bispecific antibody, V domains shown)
VH: EVQLLESGGGIVQPGGSLKLSCAASGFTFNTYAMNWVRQAPGKGLEWVARIRSKYNNYATYGADSVKDRFTISRDDSKNTVYLQMNNLKTEDTAVYYCVRHENFGNSYVSWFAHWGQGTLVTVSS
VL: ELVVTQEPSLTVSPGGTVTLTCRSSNGAVTSSNYANWVQQKPGQAPRGLIGGTNKRAPGTPARFSGSLLGGKAALTLSGVQPEDEAVYYCALWYPNLWVFGGGTKLTVL
B8: AC3419 (bispecific antibody, V domains shown)
VH: EVQLLESGGGIVQPGGSLKLSCAASGFTFNTYAMNWVRQAPGKGLEWVARIRSKYNNYATYQADSVKDRFTISRDDSKNTVYLQMNNLKTEDTAVYYCVRHENFGNSYVSWFAHWGQGTLVTVSS
VL: ELVVTQEPSLTVSPGGTVTLTCRSSNGAVTSSNYANWVQQKPGQAPRGLIGGTNKRAPGTPARFSGSLLGGKAALTLSGVQPEDEAVYYCALWYPNLWVFGGGTKLTVL
B9: AC3425 (bispecific antibody, V domains shown)
VH: EVQLLESGGGIVQPGGSLKLSCAASGFTFNTYAMNWVRQAPGKGLEWVARIRSKYNNYATYYADSVKDRFTISRDDSKNTVDLQMNNLKTEDTAVYYCVRHENFGNSYVSWFAHWGQGTLVTVSS
VL: ELVVTQEPSLTVSPGGTVTLTCRSSNGAVTSSNYANWVQQKPGQAPRGLIGGTNKRAPGTPARFSGSLLGGKAALTLSGVQPEDEAVYYCALWYPNLWVFGGGTKLTVL
B10: AC3428 (bispecific antibody, V domains shown)
VH: EVQLLESGGGIVQPGGSLKLSCAASGFTFNTYAMNWVRQAPGKGLEWVARIRSKYNNYATYYADSVKDRFTISRDDSKNTVYLQMNELKTEDTAVYYCVRHENFGNSYVSWFAHWGQGTLVTVSS
VL: ELVVTQEPSLTVSPGGTVTLTCRSSNGAVTSSNYANWVQQKPGQAPRGLIGGTNKRAPGTPARFSGSLLGGKAALTLSGVQPEDEAVYYCALWYPNLWVFGGGTKLTVL
B11: AC3427 (bispecific antibody, V domains shown)
VH: EVQLLESGGGIVQPGGSLKLSCAASGFTFNTYAMNWVRQAPGKGLEWVARIRSKYNNYATYYADSVKDRFTISRDDSKNTVSLQMNNLKTEDTAVYYCVRHENFGNSYVSWFAHWGQGTLVTVSS
VL: ELVVTQEPSLTVSPGGTVTLTCRSSNGAVTSSNYANWVQQKPGQAPRGLIGGTNKRAPGTPARFSGSLLGGKAALTLSGVQPEDEAVYYCALWYPNLWVFGGGTKLTVL
B12: AC3429 (bispecific antibody, V domains shown)
VH: EVQLLESGGGIVQPGGSLKLSCAASGFTFNTYAMNWVRQAPGKGLEWVARIRSKYNNYATYYADSVKDRFTISRDDSKNTVYLQMNQLKTEDTAVYYCVRHENFGNSYVSWFAHWGQGTLVTVSS
VL: ELVVTQEPSLTVSPGGTVTLTCRSSNGAVTSSNYANWVQQKPGQAPRGLIGGTNKRAPGTPARFSGSLLGGKAALTLSGVQPEDEAVYYCALWYPNLWVFGGGTKLTVL
B13: AC3426 (bispecific antibody, V domains shown)
VH: EVQLLESGGGIVQPGGSLKLSCAASGFTFNTYAMNWVRQAPGKGLEWVARIRSKYNNYATYYADSVKDRFTISRDDSKNTVGLQMNNLKTEDTAVYYCVRHENFGNSYVSWFAHWGQGTLVTVSS
VL: ELVVTQEPSLTVSPGGTVTLTCRSSNGAVTSSNYANWVQQKPGQAPRGLIGGTNKRAPGTPARFSGSLLGGKAALTLSGVQPEDEAVYYCALWYPNLWVFGGGTKLTVL
B14: AC3421 (bispecific antibody, V domains shown)
VH: EVQLLESGGGIVQPGGSLKLSCAASGFTFNTYAMNWVRQAPGKGLEWVARIRSKYNNYATYWADSVKDRFTISRDDSKNTVYLQMNNLKTEDTAVYYCVRHENFGNSYVSWFAHWGQGTLVTVSS
VL: ELVVTQEPSLTVSPGGTVTLTCRSSNGAVTSSNYANWVQQKPGQAPRGLIGGTNKRAPGTPARFSGSLLGGKAALTLSGVQPEDEAVYYCALWYPNLWVFGGGTKLTVL
B15: AC3430 (bispecific antibody, V domains shown)
VH: EVQLLESGGGIVQPGGSLKLSCAASGFTFNTYAMNWVRQAPGKGLEWVARIRSKYNNYATYYADSVKDRFTISRDDSKNTVYLQMNSLKTEDTAVYYCVRHENFGNSYVSWFAHWGQGTLVTVSS
VL: ELVVTQEPSLTVSPGGTVTLTCRSSNGAVTSSNYANWVQQKPGQAPRGLIGGTNKRAPGTPARFSGSLLGGKAALTLSGVQPEDEAVYYCALWYPNLWVFGGGTKLTVL

The binders below were run against CD3 (assay: Octet, crude lysate).
CD3, sequence (P07766 23-126): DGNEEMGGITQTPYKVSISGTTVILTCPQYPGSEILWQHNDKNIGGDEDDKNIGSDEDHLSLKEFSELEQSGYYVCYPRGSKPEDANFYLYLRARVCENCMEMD
B1 gave a Kd of 9.7 nM.
B2 was tested, and the Kd was 8.2 nM.
Binder B3 has a Kd of 5.4 nM.
Binder B4 has a Kd of 4.6 nM.
B5 was tested, and the Kd was 8 nM.
With B6 the Kd was 5.2 nM.
For B7, the Kd was 8.3 nM.
B8 was tested, and the Kd was 7.2 nM.
B9 was tested, and the Kd was 9.8 nM.
B10 was tested, and the Kd was 5.9 nM.
Work on B11 yielded a Kd of 9.6 nM.
B12 showed a Kd of 7.1 nM.
B13 gave a Kd of 121 nM.
B14 showed a Kd of 37.2 nM.
Work on B15 yielded a Kd of 4.8 nM.
